Values quoted from earlier work, collected in article PMC4452390.

Target: EGFR (Homo sapiens) (UniProt P00533)

Kd: 3 nM
Substance: EGF (from UniProt P01133)
